Assay results as given in the DeepSol protein solubility set.

Assay: soluble on expression in E. coli; label from the status in PepcDB or PDB records

Sequence	soluble on expression in E. coli
GHELSAIIPRSSWLAQKPMDEPLPLQLPVKYVVILHTATESSEKRAINVRLIRDMQSFHIESRGWNDIAYNFLVGCDGNIYEGRGWKTVGAHTLGYNRISLGISFIGCFMKELPTADALNMCRNLLARGVEDGHISTDYRLICHCQCNSTESPGRRLYEEIQTWPHFYNIEEEEQ	soluble
MRNFKKPDVLVSKCLEHGRCRYDGQMISSDFVKSTKKYFNYVPVCPEVEIGLSIPRNSLKIVFENEKFEFVQNITNNNYTSKITQFSSDFLDSIENIDGAVLKHKSPSCGIKNVKVYTAKGNPTNQKTEGFFAKEVLYRYSNIAIEEESRLRNKRIKDHFLTKLYTIKDFKEVKESESIKNLIEFHTNNKFLFMAYNQKQKDILGNIVGNHNKNFDKIIKLYEKHLQLLLKRPSAIGSNINVLMHIFGYMSNKISKDEKLLFIDSLQRYHDELDCLCVPIILLKSWVIRFNVDYLKKQTYFEPFPQELADNSEMFKRDYWND	not soluble
VSAASLSKSAPAEPQPGPPQPAAGPQALPAIGGLTPFSSVDWPGQLAAVVFIAGCPWRCHYCHNPHLQERARGLDWREVLDFLGRRRNLLDAVVFSGGEPLSEPRLPQLIDAARALGLRIGLHTGGIYPARFAEVLPRLDWVGLDIKTTAPRYDALTGRRGSAAPVDACLDLLLRSHCAFECRTTWHPDWLPEPQLLALAQSLCSRGVKHYAIQAYRSAPGTLATALPSEATQHALAACFSSFSCR	soluble
MPEGFDAYCICTGTPTARDLSIPGRELKGIHFALEMLAQQNRILEGQTFPKDKLVNAKGKKVLVIGGGDTGSDCIGTSVRQGATSVTQIEIMPKPPVGHNPSTPWPQWPVVFKTTSSHEEGCTRRWCLTSNQFLGKNGKVTGVEVEEVEWTPATDGGRPTMNLTGKKEVIEADMVLLAMGFLKPEQPKFAENVFLAGDAATGASLVVRAMAGGRKAAADIDHYLEHHHHHH	not soluble
MGSDKIHHHHHHMDKFLYISMSGAKQNMNELALRANNLANANTDGFKSDMAQARSMQAFGEGLPTRVFAMVETPSANFRSGPIKSTGRDLDVAIKGDGWFAVQAQDGSEAYTRSGSLSFDSTGLLHNDRGNPVMGDAGPIVLPLPIEKVTISQDGIISVRPQGATTEVVEEVGRLKLVNPGNAQMMRGEDGLFRLVSGDPAPADPSVSVESGAVEGSNVNSVDEMVSLIDLQRQFELQVKMMKTAEENDRASSSLMRIS	not soluble
MANVYDLANELERAVRALPEYQAVLTAKSAIESDADAQVLWQDFLATQSKVQEMMQSGQMPSQEEQDEMSKLGEKIESNDLLKVYFDQQQRLSVYMSDIEKIVFAPMQDLM	not soluble
MYLGRHFLAMTSKALFDTKILKVNPLSIIFSPDAHIDGSLPTITDPETEAALVEAARIIRDTDETVAFPTETVYGLGGSALNDNSVLSIYRAKNRPSDNPLITHVSSIDQLNRKVFNQPHLSGTSLFDNIPSIYRPLISSLWPGPLTILLPVPSSEHSALSKLTTADQPTFAVRIPANPVARALIALSDTPIAAPSANASTRPSPTLASHVYHDLKDKIPIILDGGACKVGVESTVVDGLCNPPTLLRPGGFTYEEIVKLGGEAWSLCKVENKKTVEKGEKVRTPGMKYRHYSPSAKVVLLVPHCEGDGILKGVDRMERLKRLIETELKANSNIKKIAILTSLKLRDSDLQSKIFNEPDFSSKTFIIERLGQSGEEIQTNLFAALRKVDENDKVDLIFVEGINEEGEGLAVMNRLRKAAANNCIQF	not soluble
MRDFGEILAENRKKKGYSQSDLVNLLSQEGIQVTTKALSKWENNAREPALHVFLTLCQLLDIEDIYESFFGENPYNIMSGLNEEGRNKLIEFADILKASKKFSPLSAKIIPFHHPVEITWEPVSAGTGNYLEDSVKETYDVGHLAPEQTDFGVRISGDSMEPLYHTDDVAWIQKKDSLANGEIGIFYLNGNTYIKELHDEPDGVYLISLNQKYRPIQVLESDSFKIFGKVIGKCKGAEIPGFHLEHHHHHH	soluble
SNAMQKSVLEQLKQVTMVVADTGDFELIKKYKPVDATTNPSLILKAVKEQKYSNLVAETISKVKANNPDLNSDDLVKEIAIEILVSFGIKILDVIEGKVSSEVDARVSFNSATTIDYAKRIIARYESNGIPKDRVLIKIAATWEGIKAAKLLQKEGINCNLTLIFDKAQAKACAEAGVYLVSPFVGRITDWQMQQNNLKTFPAIADDDGVNSVKAIYKLYKSHGFKTIVMGASFRNVEQVIALAGCDALTISPVLLEELKNRDEHLEVKLTKNDDVVTQSPQISEADFRWLMNENAMATHKLAEGIRLFTKDTIELENIIKQNL	soluble
MAHHHHHHMQRYLQRTVPVAPLRLSISGNSSTEGVHADAAPLLESRFLRRLRAEVDREARAEQLCKGTAARAIQQAFRRWAQTRQLQHRHLSIHGIVRPRCEFDPIRAAELDAALCSIQASLRVWASSRLVEARRLKLLQQITSSVLDPACRTTLRCAASIRHINDRQLREVLCRQEAVERRDLLRRHFVFLVCCHQAFFNDPRMWDAGMSIRRIPLYTHHGLLSAETLPVIWGTRTSSSTLNSATEDSVALRGDAVASPLPPESSSFSVTATVDGCIKGWGSPAEPGSSLLEAVGSDWLVGKEEDGGGFDIDAALRLGEYRLLFSPEEWRLLKKLKASSPHPASPLLSSGADGRRAARDAAGLPEAEAGALAAPRGQLQMAPTEAAAKSACSLSYAKAFASALTFLRQPRMVDPSVRCTVQRLNDIRSSTLEMQQELRVHGYLFAAQVAPLLILGFHYQGLARGDADLSCFTTTSAMKTCRPLVAGRVACAATELRRCLIGAVHYSGGAAESVLPVALEEHKCSGKAAARTLSQRLPPAGVSRSMLLPPRAAPTAGLMRDGFANPGTEALYHAPAKTTRRAGGADPRCGSSHTASRHGSAIRVALAAEWSRRLASSADEVGPYWCEFLSSTGLDGLVTAAGRRGETPGEADAAYQTRASLPSPPLPTRVRRGLESHLVHGGSSYLLQDFMPSLMRRRAHSRAGPQPLDAATGSVVVAVACAGASPSTSVSTSTCGMVHAGEWWDAVERLLLREYTNRRELLTNEAVQRSSIDILRCTAHPSADESVAGV	not soluble
MGHHHHHHSHMYAEERRRQIASLTAVEGRVNVTELAGRFDVTAETIRRDLAVLDREGIVHRVHGGAVATQSFQTTELSLDTRFRSASSAKYSIAKAAMQFLPAEHGGLFLDAGTTVTALADLISEHPSSKQWSIVTNCLPIALNLANAGLDDVQLLGGSVRAITQAVVGDTALRTLALMRADVVFIGTNALTLDHGLSTADSQEAAMKSAMITNAHKVVVLCDSTKMGTDYLVSFGAISDIDVVVTDAGAPASFVEQLRERDVEVVIAE	soluble
MVKLDDKNKKFKGKKKVKNVLEKKAKGLKLNKVDRKRIVKIEEKAALKSKVDKAVKDELERLKKSSSTSVFDNDGTRDSLCSESSFGSQPAPKKKSKKVLFSGELEHVKVFDKRVQDLQIKPSEASPGRGILRSPLDKKVKKLAKVKTVKVAQEEEEEHSAPPKKKVKVNAEKAVASEPADDENLESVDEQAGGDESHIDIPTLKRKRVAIQVTKSVKEQLLNMPRKERKAFLKELKLKRKPEGARAQKCKELWEKIRMGKTPKAEKDTAVHELYGLVKGHAAKLIYAHDTSRVIECLVATEREGIINNLFNELTPEIVRMSKNVYSKFFVKKMLKNGTKEQRDIIINAFRGHAPTLLRIKHAAEVLEYAYNDFANAHQRYNIITEFYGKEFILFREDNIRSLTEILAEKPEKKVVILKHLDEVIGAVNEKETLRLSILHKLMLDFFDNCDEEKKINLLDSLKDKIPEFIHTPDGAKLAIKLIWFAPVKERKLIVKNFKDLSVKAAMEHYGHRVLLALFDTVDDTVLLNKVIVSELANEMKKLIEDDWGEKVIHYLVHPRDGRGIDKREITFLAEGDSNPHSKKTQKDRYGQLYAGITENLYPYLAANFEELVFEANKSKFVAACLETTSSFDLFDRQVPAEARKSCNQAIVELAKKDFVPMDQEGFHIIEHQSGNFILMAVMRCDAALQEDERLSVALAEGLTSKQLGSWVTCNRGCHVLLKMLQVGGPKVIEKLKASISRKHLDGYNSKGANLLKAQLDGNVKK	soluble
